Data: article PMC9496550

Target: full length human kynurenine 3-monooxygenase fused to the C-terminal fragment of CFP (flKMO-CC) (human) (UniProt O15229)
Assay: split reporter (BiFC, NanoBiT); BiFC in live HEK293T cells 48 h after co-transfection, 37 °C, 5% CO2; CC + VN (KMO with HTT) or VN + VC (HTT with HTT) complementation; ScanR screening station (mean green intensity normalised by co-transfected RFP) or confocal microscopy

Sequence of UniProt O15229 (O15229 whole entry, the tested form may be a part): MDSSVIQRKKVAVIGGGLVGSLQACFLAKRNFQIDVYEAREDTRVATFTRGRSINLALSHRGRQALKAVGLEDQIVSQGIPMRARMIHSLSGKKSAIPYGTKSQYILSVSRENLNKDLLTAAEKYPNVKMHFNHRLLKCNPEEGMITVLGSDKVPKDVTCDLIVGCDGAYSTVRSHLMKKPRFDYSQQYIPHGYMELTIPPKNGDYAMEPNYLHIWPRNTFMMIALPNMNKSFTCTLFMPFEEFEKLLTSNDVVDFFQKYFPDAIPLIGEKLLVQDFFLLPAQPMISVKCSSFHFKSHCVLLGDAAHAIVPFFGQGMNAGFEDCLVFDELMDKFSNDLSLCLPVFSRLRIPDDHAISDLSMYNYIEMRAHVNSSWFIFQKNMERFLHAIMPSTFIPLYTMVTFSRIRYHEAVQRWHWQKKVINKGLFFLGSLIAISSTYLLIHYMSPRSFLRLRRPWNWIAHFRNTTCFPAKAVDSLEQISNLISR

## HTT exon 1 fragment with 97 glutamines fused to the N-terminal half of Venus (HTT97Q-VN) (domain or fragment)
  reduction of the BiFC signal against flKMO-19Q: 50%
